Tests used:
[1] = target: T1, Anti-CD28 Fab (SEQ ID NOs: 696, 697); assay: phage binding ELISA on captured Fab; wells pre-incubated with CD28 antigen as competitor
T1 construct: In the phage ELISA the Fab was biotinylated and captured on neutravidin coated plates
T1 sequence (VH, as listed by the source, chain 1 of 2): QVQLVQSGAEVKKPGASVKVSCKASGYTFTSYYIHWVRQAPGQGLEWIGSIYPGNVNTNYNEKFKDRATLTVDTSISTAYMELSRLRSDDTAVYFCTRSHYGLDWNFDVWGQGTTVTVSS
T1 sequence (VL, as listed by the source, chain 2 of 2): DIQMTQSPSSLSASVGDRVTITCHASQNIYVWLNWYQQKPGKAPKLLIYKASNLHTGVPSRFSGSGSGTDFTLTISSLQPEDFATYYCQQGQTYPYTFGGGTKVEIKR
Description: (§1) Clonal phage were harvested as crude supematants and screened via standard ELISAs. […] Prior to the addition of clonal phage, wells were incubated with blocking buffer and CD28 antigen or blocking buffer alone. Without washing or aspirating, clonal phage supematants were then added to the wells and incubated for a short time. Wells were then washed followed by detection of bound phage using a horse radish conjugated anti-M13 antibody.

[2] = target: T1, Anti-CD28 Fab (SEQ ID NOs: 696, 697); assay: phage binding ELISA; biotinylated Fab on neutravidin plate, clonal phage supernatant, anti-M13 HRP detection
Description: Clonal phage were harvested as crude supematants and screened via standard ELISAs. […] Prior to the addition of clonal phage, wells were incubated with blocking buffer and CD28 antigen or blocking buffer alone. Without washing or aspirating, clonal phage supematants were then added to the wells and incubated for a short time. Wells were then washed followed by detection of bound phage using a horse radish conjugated anti-M13 antibody. Clonal phage of interest were then sent for sequence analysis.

[3] = target: T2, Anti-CD28 Fab (SEQ ID NOs: 696, 697); assay: phage binding ELISA on captured Fab; CD28 antigen as competitor
T2 construct: In the phage ELISA the Fab was biotinylated and captured on neutravidin coated plates
T2 sequence (VH, as listed by the source, chain 1 of 2): as the sequence (VH, as listed by the source, chain 1 of 2) above
T2 sequence (VL, as listed by the source, chain 2 of 2): as the sequence (VL, as listed by the source, chain 2 of 2) above
Description: as §1

[4] = target: T2, Anti-CD28 Fab (SEQ ID NOs: 696, 697); assay: phage binding ELISA; biotinylated Fab on neutravidin plate, anti-M13 HRP detection
Description: as §1

[5] = target: T3, Anti-CD28 Fab (SEQ ID NOs: 696, 697); assay: phage binding ELISA; biotinylated anti-CD28 Fab on neutravidin plate, clonal phage supernatant, anti-M13 HRP detection;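 further: wells pretreated with blocking buffer, either plus or minus CD28 antigen, then given crude phage supernatant briefly without washing in between, then washed before anti-M13 HRP readout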
T3 construct: In the phage ELISA the Fab was biotinylated and captured on neutravidin coated plates
T3 sequence (VH, as listed by the source, chain 1 of 2): as the sequence (VH, as listed by the source, chain 1 of 2) above
T3 sequence (VL, as listed by the source, chain 2 of 2): as the sequence (VL, as listed by the source, chain 2 of 2) above
Description: as §1

[6] = target: T3, Anti-CD28 Fab (SEQ ID NOs: 696, 697); assay: phage binding ELISA on plate-captured anti-CD28 Fab pre-incubated with CD28 antigen (competitor: CD28), anti-M13 HRP detection
Description: as §1

SCTAGFRIHWPMCF [Phage-1659] was tested, and the “Anti-CD28 Fab signal in the presence of CD28” value [1] was 0.12 and the “Anti-CD28 Fab (SEQ ID NOs: 696, 697) signal” value [2] was 1.06.

For VCAAGAAYPWPACL (tested as crude phage supernatant) [Phage-1673], the “Anti-CD28 Fab signal in the presence of CD28” value [3] was 0.07 and the “Anti-CD28 Fab (SEQ ID NOs: 696, 697) signal” value [4] was 0.93.

For TCAAGAAYTWPHCF [Phage-1699], the “Phage binding ELISA, Anti-CD28 Fab signal” value [5] was 0.69 and the “Phage binding ELISA, Anti-CD28 Fab signal in the presence of CD28” value (“Phage binding ELISA … of CD28” for short) [6] was 0.11.

In the case of TCSAGATYKWPMCF [Phage-1690], the “Phage binding ELISA, Anti-CD28 Fab signal” value [5] is reported as 0.77 and the “Phage binding ELISA … of CD28” value [6] is reported as 0.07.

In the case of SCTAVFSYALSPCF (tested as crude phage supernatant) [Phage-1666], the “Anti-CD28 Fab signal in the presence of CD28” value [3] is reported as 0.05 and the “Anti-CD28 Fab (SEQ ID NOs: 696, 697) signal” value [4] is reported as 0.99.

In the case of SCAAGSTWAWPACL [Phage-1657], the “Anti-CD28 Fab signal in the presence of CD28” value [1] is reported as 0.07 and the “Anti-CD28 Fab (SEQ ID NOs: 696, 697) signal” value [2] is reported as 1.07.

In the case of TCSAGAHYPWPMCL (tested as crude phage supernatant) [Phage-1674], the “Anti-CD28 Fab signal in the presence of CD28” value [3] is reported as 0.06 and the “Anti-CD28 Fab (SEQ ID NOs: 696, 697) signal” value [4] is reported as 0.93.

WCSAVFSYQWPVCL [Phage-1701] was tested, and the “Phage binding ELISA, Anti-CD28 Fab signal” value [5] was 0.61 and the “Phage binding ELISA … of CD28” value [6] was 0.06.

With MCTAGFSFNWPECL (tested as crude phage supernatant) [Phage-1661] the “Anti-CD28 Fab signal in the presence of CD28” value [3] was 0.07 and the “Anti-CD28 Fab (SEQ ID NOs: 696, 697) signal” value [4] was 1.05.

For SCAAGASYSWPLCF (tested as crude phage supernatant) [Phage-1672], the “Anti-CD28 Fab signal in the presence of CD28” value [3] was 0.08 and the “Anti-CD28 Fab (SEQ ID NOs: 696, 697) signal” value [4] was 0.95.

In the case of SCAAGAAYAWPWCL [Phage-1660], the “Anti-CD28 Fab signal in the presence of CD28” value [1] is reported as 0.07 and the “Anti-CD28 Fab (SEQ ID NOs: 696, 697) signal” value [2] is reported as 1.05.

SCAAGAHWSWPACL (tested as crude phage supernatant) [Phage-1670] was tested, and the “Anti-CD28 Fab signal in the presence of CD28” value [3] was 0.06 and the “Anti-CD28 Fab (SEQ ID NOs: 696, 697) signal” value [4] was 0.97.

With TCAAGAHYEWPQCF [Phage-1653] the “Anti-CD28 Fab signal in the presence of CD28” value [1] was 0.06 and the “Anti-CD28 Fab (SEQ ID NOs: 696, 697) signal” value [2] was 1.08.

For TCAAGATYNWPWCF [Phage-1654], the “Anti-CD28 Fab signal in the presence of CD28” value [1] was 0.07 and the “Anti-CD28 Fab (SEQ ID NOs: 696, 697) signal” value [2] was 1.07.

In the case of TCSAGATYKWPTCL (tested as crude phage supernatant) [Phage-1669], the “Anti-CD28 Fab signal in the presence of CD28” value [3] is reported as 0.07 and the “Anti-CD28 Fab (SEQ ID NOs: 696, 697) signal” value [4] is reported as 0.97.

In the case of TCAAGAQLEWPWCF [Phage-1697], the “Phage binding ELISA, Anti-CD28 Fab signal” value [5] is reported as 0.7 and the “Phage binding ELISA … of CD28” value [6] is reported as 0.07.

In the case of PCSAGATYAWPYCL [Phage-1696], the “Phage binding ELISA, Anti-CD28 Fab signal” value [5] is reported as 0.71 and the “Phage binding ELISA … of CD28” value [6] is reported as 0.09.

For TCAAGATYSWPSCF [Phage-1651], the “Anti-CD28 Fab signal in the presence of CD28” value [1] was 0.07 and the “Anti-CD28 Fab (SEQ ID NOs: 696, 697) signal” value [2] was 1.1.

In the case of ICAAGAGWPWPWCL [Phage-1692], the “Phage binding ELISA, Anti-CD28 Fab signal” value [5] is reported as 0.75 and the “Phage binding ELISA … of CD28” value [6] is reported as 0.1.

For TCAAGANYAWPVCL [Phage-1652], the “Anti-CD28 Fab signal in the presence of CD28” value [1] was 0.13 and the “Anti-CD28 Fab (SEQ ID NOs: 696, 697) signal” value [2] was 1.09.

For TCAAGATYDWPSCL [Phage-1694], the “Phage binding ELISA, Anti-CD28 Fab signal” value [5] was 0.71 and the “Phage binding ELISA … of CD28” value [6] was 0.08.

In the case of TCSAGASYSWPYCM (tested as crude phage supernatant) [Phage-1664], the “Anti-CD28 Fab signal in the presence of CD28” value [3] is reported as 0.07 and the “Anti-CD28 Fab (SEQ ID NOs: 696, 697) signal” value [4] is reported as 1.

For TCAAGAVWQWPTCF [Phage-1695], the “Phage binding ELISA, Anti-CD28 Fab signal” value [5] was 0.71 and the “Phage binding ELISA … of CD28” value [6] was 0.06.

For GCAAGAEYNWPTCL [Phage-1698], the “Phage binding ELISA, Anti-CD28 Fab signal” value [5] was 0.69 and the “Phage binding ELISA … of CD28” value [6] was 0.64.

With SCAAGFHYEWPQCF [Phage-1658] the “Anti-CD28 Fab signal in the presence of CD28” value [1] was 0.06 and the “Anti-CD28 Fab (SEQ ID NOs: 696, 697) signal” value [2] was 1.06.

For ECSAGAMWGWPACF [Phage-1693], the “Phage binding ELISA, Anti-CD28 Fab signal” value [5] was 0.73 and the “Phage binding ELISA … of CD28” value [6] was 0.09.

In the case of TCSAGAQWEWPACL [Phage-1700], the “Phage binding ELISA, Anti-CD28 Fab signal” value [5] is reported as 0.67 and the “Phage binding ELISA … of CD28” value [6] is reported as 0.08.

For PCAAGAHYVWPVCF (tested as crude phage supernatant) [Phage-1668], the “Anti-CD28 Fab signal in the presence of CD28” value [3] was 0.06 and the “Anti-CD28 Fab (SEQ ID NOs: 696, 697) signal” value [4] was 0.97.

With TCAAGATWTWPTCM [Phage-1655] the “Anti-CD28 Fab signal in the presence of CD28” value [1] was 0.06 and the “Anti-CD28 Fab (SEQ ID NOs: 696, 697) signal” value [2] was 1.07.

For SCSAGASYAWPMCI [Phage-1702], the “Phage binding ELISA, Anti-CD28 Fab signal” value [5] was 0.59 and the “Phage binding ELISA … of CD28” value [6] was 0.06.

For TCSAGATYGWPACF [Phage-1691], the “Phage binding ELISA, Anti-CD28 Fab signal” value [5] was 0.76 and the “Phage binding ELISA … of CD28” value [6] was 0.07.

In the case of SCAAVFSFNWPECF (tested as crude phage supernatant) [Phage-1663], the “Anti-CD28 Fab signal in the presence of CD28” value [3] is reported as 0.07 and the “Anti-CD28 Fab (SEQ ID NOs: 696, 697) signal” value [4] is reported as 1.01.

For PCAAGAQWSWPMCL [Phage-1656], the “Anti-CD28 Fab signal in the presence of CD28” value [1] was 0.09 and the “Anti-CD28 Fab (SEQ ID NOs: 696, 697) signal” value [2] was 1.07.

For MCAAGAMYNWPLCL (tested as crude phage supernatant) [Phage-1671], the “Anti-CD28 Fab signal in the presence of CD28” value [3] was 0.09 and the “Anti-CD28 Fab (SEQ ID NOs: 696, 697) signal” value [4] was 0.95.

In the case of LCDQFFHYNWPACL (tested as crude phage supernatant) [Phage-1662], the “Anti-CD28 Fab signal in the presence of CD28” value [3] is reported as 0.05 and the “Anti-CD28 Fab (SEQ ID NOs: 696, 697) signal” value [4] is reported as 1.04.

WCSEVFSYPWPACL (tested as crude phage supernatant) [Phage-1665] was tested, and the “Anti-CD28 Fab signal in the presence of CD28” value [3] was 0.06 and the “Anti-CD28 Fab (SEQ ID NOs: 696, 697) signal” value [4] was 0.99.

LCAAVFAYTWPMCF (tested as crude phage supernatant) [Phage-1667] was tested, and the “Anti-CD28 Fab signal in the presence of CD28” value [3] was 0.07 and the “Anti-CD28 Fab (SEQ ID NOs: 696, 697) signal” value [4] was 0.98.

Reference: patent publication US20260242478A1 (published 2026)
